Test results as given in paper PMC6592955.

How the values were obtained:
Assay in all cases: FRET or BRET; 2pFLIM-FRET in single dendritic spines of CA1 pyramidal neurons, organotypic hippocampal slices; train of two-photon glutamate uncaging (0.49 Hz, 30 pulses, sLTP protocol) without extracellular Mg^2+; room temperature (25–27 °C); 128 ms/frame; decay after the train fitted with a double exponential; T286A in slices of Camk2a^T286A knock-in mice
[1] = target: mEGFP-CaMKIIα^T286A (Rattus norvegicus) (UniProt P11275)
[2] = target: mEGFP-CaMKIIα^T305A/T306A (Rattus norvegicus) (UniProt P11275)
[3] = target: mEGFP-CaMKIIα (wildtype) (Rattus norvegicus) (UniProt P11275)

Substance | dissociation time constant (tau fast, decay after the train) [1] | dissociation time constant (tau fast, decay after the train) [2] | dissociation time constant (tau fast, decay after the train) [3]
mCherry-CaM (from UniProt P0DP26 1-149) (natural protein) | 1 s | 9.3 s | –
mCherry-CaM (from UniProt P0DP26 1-149) (natural protein; other documents disagree on this pair) | – | – | 3.2 s
